US20240425885

What was measured:
Experiment in all cases: cleavage_in_vitro
[1] = system: T1, OMNI-132 (metagenomic, unknown); details: TXTL; PAM NNAAATNN
T1 sequence: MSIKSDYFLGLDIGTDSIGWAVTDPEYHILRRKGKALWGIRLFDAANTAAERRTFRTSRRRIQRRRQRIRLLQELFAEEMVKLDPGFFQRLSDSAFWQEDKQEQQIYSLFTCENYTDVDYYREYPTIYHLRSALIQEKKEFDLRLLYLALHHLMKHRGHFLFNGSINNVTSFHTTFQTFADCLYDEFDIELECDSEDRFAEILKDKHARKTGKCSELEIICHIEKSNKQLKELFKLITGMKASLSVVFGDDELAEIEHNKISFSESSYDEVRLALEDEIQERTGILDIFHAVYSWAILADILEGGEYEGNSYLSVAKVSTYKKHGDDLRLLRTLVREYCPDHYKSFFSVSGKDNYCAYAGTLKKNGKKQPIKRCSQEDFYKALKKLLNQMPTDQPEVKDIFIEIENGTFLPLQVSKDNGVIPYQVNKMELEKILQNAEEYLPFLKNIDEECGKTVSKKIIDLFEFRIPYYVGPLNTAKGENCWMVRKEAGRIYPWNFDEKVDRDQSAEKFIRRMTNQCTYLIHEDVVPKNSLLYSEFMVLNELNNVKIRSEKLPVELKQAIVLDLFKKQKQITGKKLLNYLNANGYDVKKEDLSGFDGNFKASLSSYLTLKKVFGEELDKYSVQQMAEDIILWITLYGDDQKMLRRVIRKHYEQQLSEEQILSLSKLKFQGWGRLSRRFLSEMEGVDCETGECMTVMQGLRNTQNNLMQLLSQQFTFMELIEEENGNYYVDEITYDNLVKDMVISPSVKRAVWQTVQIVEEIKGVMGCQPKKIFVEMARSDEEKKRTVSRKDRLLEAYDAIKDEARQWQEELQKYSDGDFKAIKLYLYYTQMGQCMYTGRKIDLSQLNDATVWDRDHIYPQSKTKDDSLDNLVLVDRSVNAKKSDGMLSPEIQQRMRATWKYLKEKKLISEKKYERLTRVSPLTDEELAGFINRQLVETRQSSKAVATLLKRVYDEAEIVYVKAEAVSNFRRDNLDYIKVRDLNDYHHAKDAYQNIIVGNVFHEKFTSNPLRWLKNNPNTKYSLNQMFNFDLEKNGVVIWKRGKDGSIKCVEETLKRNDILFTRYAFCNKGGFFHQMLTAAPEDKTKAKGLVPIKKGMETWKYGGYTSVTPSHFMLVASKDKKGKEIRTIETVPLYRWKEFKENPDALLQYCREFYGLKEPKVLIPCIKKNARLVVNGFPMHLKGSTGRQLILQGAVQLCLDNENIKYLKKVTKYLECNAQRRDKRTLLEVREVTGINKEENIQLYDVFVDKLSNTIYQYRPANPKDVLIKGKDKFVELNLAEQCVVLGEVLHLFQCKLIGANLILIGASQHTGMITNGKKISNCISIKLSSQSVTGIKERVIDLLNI

[2] = system: T2, OMNI-93 (metagenomic, unknown); details: TXTL
T2 sequence: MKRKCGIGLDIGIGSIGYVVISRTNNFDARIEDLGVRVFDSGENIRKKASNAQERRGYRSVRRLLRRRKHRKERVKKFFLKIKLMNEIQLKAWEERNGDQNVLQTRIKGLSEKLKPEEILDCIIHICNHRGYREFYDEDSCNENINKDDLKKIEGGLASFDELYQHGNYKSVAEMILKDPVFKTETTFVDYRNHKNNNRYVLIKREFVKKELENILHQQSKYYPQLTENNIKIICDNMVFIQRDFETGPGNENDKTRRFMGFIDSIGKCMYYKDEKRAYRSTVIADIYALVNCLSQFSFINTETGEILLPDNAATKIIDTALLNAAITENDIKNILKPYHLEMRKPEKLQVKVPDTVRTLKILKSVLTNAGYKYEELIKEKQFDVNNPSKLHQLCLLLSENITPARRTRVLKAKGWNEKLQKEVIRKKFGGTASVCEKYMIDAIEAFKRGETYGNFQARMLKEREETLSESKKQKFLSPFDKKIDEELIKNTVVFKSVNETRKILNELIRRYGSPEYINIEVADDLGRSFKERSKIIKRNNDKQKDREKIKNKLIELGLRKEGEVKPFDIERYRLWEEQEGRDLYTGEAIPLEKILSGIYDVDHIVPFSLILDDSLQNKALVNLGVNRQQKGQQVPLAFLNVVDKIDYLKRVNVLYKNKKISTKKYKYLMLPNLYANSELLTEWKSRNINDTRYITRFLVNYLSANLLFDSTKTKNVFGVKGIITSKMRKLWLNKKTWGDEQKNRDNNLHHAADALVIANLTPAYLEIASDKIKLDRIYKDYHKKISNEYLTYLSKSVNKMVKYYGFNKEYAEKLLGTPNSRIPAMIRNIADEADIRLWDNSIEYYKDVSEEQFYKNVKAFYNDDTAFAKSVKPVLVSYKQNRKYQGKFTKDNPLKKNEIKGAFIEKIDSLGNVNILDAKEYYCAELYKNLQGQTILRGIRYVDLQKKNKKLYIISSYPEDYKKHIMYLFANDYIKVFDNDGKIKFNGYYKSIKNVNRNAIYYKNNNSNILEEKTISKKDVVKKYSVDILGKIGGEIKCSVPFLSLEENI

[3] = system: T3, OMNI-118 (metagenomic, unknown); details: TXTL; PAM NNRTTHNN
T3 sequence: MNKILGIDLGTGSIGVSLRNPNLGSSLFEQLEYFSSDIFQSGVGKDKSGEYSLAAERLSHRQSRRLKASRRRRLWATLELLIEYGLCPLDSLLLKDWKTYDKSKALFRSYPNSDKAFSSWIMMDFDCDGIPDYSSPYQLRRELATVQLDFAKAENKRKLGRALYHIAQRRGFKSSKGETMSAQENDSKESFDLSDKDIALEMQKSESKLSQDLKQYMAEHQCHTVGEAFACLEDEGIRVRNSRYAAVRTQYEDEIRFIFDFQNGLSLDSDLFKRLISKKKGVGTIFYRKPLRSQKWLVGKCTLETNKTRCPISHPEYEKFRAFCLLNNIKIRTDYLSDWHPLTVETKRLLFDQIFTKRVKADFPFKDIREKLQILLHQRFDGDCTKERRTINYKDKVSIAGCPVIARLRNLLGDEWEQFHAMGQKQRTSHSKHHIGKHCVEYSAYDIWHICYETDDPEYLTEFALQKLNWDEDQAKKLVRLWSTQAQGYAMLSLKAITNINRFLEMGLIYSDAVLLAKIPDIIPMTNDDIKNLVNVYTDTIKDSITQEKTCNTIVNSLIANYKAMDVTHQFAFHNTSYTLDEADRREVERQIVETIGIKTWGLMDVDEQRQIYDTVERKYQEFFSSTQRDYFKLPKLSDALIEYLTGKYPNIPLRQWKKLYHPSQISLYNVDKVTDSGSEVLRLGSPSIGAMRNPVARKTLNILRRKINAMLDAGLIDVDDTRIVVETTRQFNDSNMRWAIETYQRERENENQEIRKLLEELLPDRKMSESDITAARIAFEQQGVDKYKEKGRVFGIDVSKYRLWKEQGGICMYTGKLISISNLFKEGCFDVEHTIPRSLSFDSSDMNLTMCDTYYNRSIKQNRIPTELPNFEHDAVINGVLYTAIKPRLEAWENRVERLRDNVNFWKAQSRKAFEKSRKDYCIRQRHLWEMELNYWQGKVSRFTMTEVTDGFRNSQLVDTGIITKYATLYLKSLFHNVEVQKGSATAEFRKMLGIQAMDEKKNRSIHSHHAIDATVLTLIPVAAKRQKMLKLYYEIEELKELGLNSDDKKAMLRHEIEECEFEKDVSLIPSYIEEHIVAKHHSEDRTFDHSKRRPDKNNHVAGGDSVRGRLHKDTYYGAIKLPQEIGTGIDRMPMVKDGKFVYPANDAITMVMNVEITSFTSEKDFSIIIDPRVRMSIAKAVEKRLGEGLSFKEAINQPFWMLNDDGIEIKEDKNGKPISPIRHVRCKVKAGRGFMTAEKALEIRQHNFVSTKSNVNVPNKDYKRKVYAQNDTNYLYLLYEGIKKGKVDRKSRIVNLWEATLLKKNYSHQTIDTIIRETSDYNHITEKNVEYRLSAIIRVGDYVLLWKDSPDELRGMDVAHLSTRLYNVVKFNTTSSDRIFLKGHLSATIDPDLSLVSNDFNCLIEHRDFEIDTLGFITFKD

Sequence | activity (1-depletion score) [1] | activity (1-depletion score) [3] | also measured
GGAAGAGCAGAGCCUUGGUCUCGUUUGAGAGUAGUGUAAGAAAUUACACUACAAGUUCAAAUAAAAAUUUAUUCAAAUCCUUUUGCUACAUUGUGUAGAAUUUAAAGAUCUGGCAACAGAUCUUUUUUAUUUUUU / GGAAGAGCAGAGCCTTGGTCTCNNNNNNNN / NNNNNNNNGAGACCAAGGCTCTGCTCTTCC [T2 sgRNA 32 V1 ; T2 protospacer + 8N PAM library (pbPOS T2)] | 0.97 |  | 
GGAAGAGCAGAGCCUUGGUCUCGUUUUAGUACUCUGUUGGAAACAACAAUAGUUCUAAGAUAAGGCUAUUUAUGCCGUAGGGUAUGGUGGUAUCCCUUUAAUCCACCUUUAAGCCAUUGCUUAUGCAAUGGCUUAUCUAUAUUUUUU / GGAAGAGCAGAGCCTTGGTCTCNNNNNNNN / NNNNNNNNGAGACCAAGGCTCTGCTCTTCC [T2 sgRNA 4 V1 ; T2 protospacer + 8N PAM library (pbPOS T2)] |  |  | activity (1-depletion score) ([2]; PAM NNGGGGNN (specific NNRGGDNN)): 0.99
GGAAGAGCAGAGCCUUGGUCUCGUUUGAGAGUAGUGUAAGAAAUUACACUACAAGUUCAAAUAAAAAUUUAUUCAAAUCCAUUUGCUACAUUGUGUAGAAUUUAAAGAUCUGGCAACAGAUCUUUUUUU / GGAAGAGCAGAGCCTTGGTCTCNNNNNNNN / NNNNNNNNGAGACCAAGGCTCTGCTCTTCC [T2 sgRNA 12 V2 ; T2 protospacer + 8N PAM library (pbPOS T2)] | 0.97 |  | 
GGAAGAGCAGAGCCUUGGUCUCGUUGUGAUUUGCUCUCAAAUGAAAAUUUGUGAGACUUAUCACAACAAGGCUAUAAGCCGAAGUAUUAACUCCGCGAUUAUGUCGUGGAGUUUUUUU / GGAAGAGCAGAGCCTTGGTCTCNNNNNNNN / NNNNNNNNGAGACCAAGGCTCTGCTCTTCC [T2 sgRNA 21 V2 ; T2 protospacer + 8N PAM library (pbPOS T2)] |  | 0.78 | 
GGAAGAGCAGAGCCUUGGUCUCGUCUUAGUACUCUGUUGGAAACAACAAUAGUUCUAAGAUAAGGCUAUUUAUGCCGUAGGGUAUGGUGGUAUCCCUUUAAUCCACCUUUAAGCCAUUGCUUAUGCAAUGGCUUAUCUAUAUUUUUU / GGAAGAGCAGAGCCTTGGTCTCNNNNNNNN / NNNNNNNNGAGACCAAGGCTCTGCTCTTCC [T2 sgRNA 4 V2 ; T2 protospacer + 8N PAM library (pbPOS T2)] |  |  | activity (1-depletion score) ([2]; PAM NNGGGGNN): 0.97
GGAAGAGCAGAGCCUUGGUCUCGUUGUGAUUUGCUCUCAAAUGAAAAUUUGUGAGACUUAUCACAACAAGGCUAUAAGCCGAAGUAUUAACUCCGCGAUUUUGUCGUGGAGUUUUUUU / GGAAGAGCAGAGCCTTGGTCTCNNNNNNNN / NNNNNNNNGAGACCAAGGCTCTGCTCTTCC [T2 sgRNA 21 V1 ; T2 protospacer + 8N PAM library (pbPOS T2)] |  | 0.66 | 
